Measurements from patent publication US9278138B2, “Peptide linkers for effective multivalent peptide binding” (E. I. DU PONT DE NEMOURS AND COMPANY, priority 2008, dated 2016).
Residue numbers refer to the chain shown, from its start. Each block holds one molecule with its values, some of them ahead of it.

Columns and labels:
[1] = Phage titer assay of phage binding to hair; design: species or system human; conditions: phage-displayed peptide; six gray hair strands; relative to HP2-TonB-Gray3 = 100
Experimental: (§1) Phage particles recovered from panning (Example 2) were used to infect E. coli 10GF′ and transformants were purified by colony isolation. Purified phagemid clones were infected with helper phage VCSM13 and phage particles were isolated. Those purified phage clones were assayed for binding to hair by two methods.
Six gray hair strands (1.5 cm long) were blocked with BSA (1 mg/mL) at room temperature (˜21° C.) for 30 min in 1.5 mL microfuge tubes, then washed twice with tris buffered saline (TBS). Phage particles were added in TBS plus 0.1% TWEEN®-20 and incubated at room temperature for 1 hour with gentle shaking. The hair was then washed 3 times with TBS plus 0.5% TWEEN®-20, and centrifuged briefly to remove excess liquid. E. coli 10GF′ (1 mL; OD600nm=0.5) was added for 15 min. Aliquots were plated on selective plates and phagemid-containing colonies were counted (Table 4)

[2] = Phage ELISA of phage binding to hair; design: species or system human; conditions: phage-displayed peptide, 1×10^11 pfu; A450; relative to HP2-TonB-Gray3 = 100
Experimental: as §1
Gray hair (200 strands, 1.5 cm long per bundle were blocked with BSA (1 mg/mL) at room temperature (˜21° C.) for 30 min in 1.5 mL microfuge tubes, then washed 3 times with TBS. Phage particles (1×10^11 pfu) were added in TBS plus 0.1% TWEEN®-20 and incubated at room temperature for 1 hr with gentle shaking. The hair was then washed 5 times with TBS plus 0.5% TWEEN®-20. Hair with bound phage was incubated with HRP/Anti-M13 monoclonal conjugate (GE Healthcare Bio-Science Corp, Piscataway, N.J.) at room temperature (˜21° C.) for 1 hr with gentle shaking, then washed 6 times with TBS plus 0.5% TWEEN®-20. IMMUNOPURE® TMB substrate kit (High sensitivity, Pierce, Rockford, Ill.; a division of Thermo Scientific) was used for colorimetric assay. After 15˜20 min development with gentle shaking, the reaction was stopped, and absorbance was determined at 450 nm. The Phage titer and ELISA data were reported relative to the activity observed for the hair-binding domain HP2-TonB-Gray3. (Table 4).

Molecule: KF11-[(KP)6GG]2-KF11: hair-binding domain, SEQ ID NO: 101 (PSNTSQLSTGPKPKPKPKPKPKPGGKPKPKPKPKPKPGGPANTSQLSTGS)
- Phage Titer (%) relative to the activity of HP2-TonB-Gray3 [1]: 1%
- ELISA (%) relative to the activity of HP2-TonB-Gray3 [2]: 1%

Molecule: Gray1-(KP)8-Gray1: hair-binding domain, SEQ ID NO: 77 (PSGMPAMHWIHPFAGPKPKPKPKPKPKPKPKPPAGMPAMHWIHPFAGS)
- Phage Titer (%) relative to the activity of HP2-TonB-Gray3 [1]: 1%
- ELISA (%) relative to the activity of HP2-TonB-Gray3 [2]: 1%

Molecule: Gray3-[(KP)6GG]2-KF11: hair-binding domain, SEQ ID NO: 83 (PSHDHKNQKETHQRHAAGPKPKPKPKPKPKPGGKPKPKPKPKPKPGGPANTSQLSTGS)
- Phage Titer (%) relative to the activity of HP2-TonB-Gray3 [1]: 1%
- ELISA (%) relative to the activity of HP2-TonB-Gray3 [2]: 1%

B3: Gray5-(EAAAKLL)3-Gray3: hair-binding domain, SEQ ID NO: 92 (peptide)
chain: PSTAEIQSSKNPNPHPQRSWTNGPEAAAKLLEAAAKLLEAAAKLLPAHDHKNQKETHQRHAAGS
- Phage Titer (%) relative to the activity of HP2-TonB-Gray3 [1]: 10%
- ELISA (%) relative to the activity of HP2-TonB-Gray3 [2]: 60%

B4: Gray3-TonB-HP1: hair-binding domain, SEQ ID NO: 98 (peptide)
chain: PSHDHKNQKETHQRHAAGPEPEPEPEPIPEPPKEAPVVIEKPKPKPKPKPKPPAGSCVDTHKADSCVANNGPATGS
- Phage Titer (%) relative to the activity of HP2-TonB-Gray3 [1]: 1%
- ELISA (%) relative to the activity of HP2-TonB-Gray3 [2]: 1%

B8: Gray5-[(KP)6GG]2-Gray4A: hair-binding domain, SEQ ID NO: 78 (peptide)
chain: PSTAEIQSSKNPNPHPQRSWTNGPKPKPKPKPKPKPGGKPKPKPKPKPKPGGPAHNHMQERYTAPQHSPSVNGLGS
- Phage Titer (%) relative to the activity of HP2-TonB-Gray3 [1]: 1%
- ELISA (%) relative to the activity of HP2-TonB-Gray3 [2]: 1%

B9: MEA4-[(KP)6GG]2-MEA4: hair-binding domain, SEQ ID NO: 102 (peptide)
chain: PSHINKTNPHQGNHHSEKTQRQGPKPKPKPKPKPKPGGKPKPKPKPKPKPGGPAHINKTNPHQGNHHSEKTQRQGS
- Phage Titer (%) relative to the activity of HP2-TonB-Gray3 [1]: 1%
- ELISA (%) relative to the activity of HP2-TonB-Gray3 [2]: 1%

B10: KF11-[(KP)6GG]2-Gray4A: hair-binding domain, SEQ ID NO: 97 (peptide)
chain: PSNTSQLSTGPKPKPKPKPKPKPGGKPKPKPKPKPKPGGPAHNHMQERYTAPQHSPSVNGLGS
- Phage Titer (%) relative to the activity of HP2-TonB-Gray3 [1]: 1%
- ELISA (%) relative to the activity of HP2-TonB-Gray3 [2]: 1%

B14: Gray5-[(KP)6GG]2-HP2: hair-binding domain, SEQ ID NO: 99 (peptide)
chain: PSTAEIQSSKNPNPHPQRSWTNGPKPKPKPKPKPKPGGKPKPKPKPKPKPGGPAAQSQLPDKHSGLHERAPQRYGS
- Phage Titer (%) relative to the activity of HP2-TonB-Gray3 [1]: 1%
- ELISA (%) relative to the activity of HP2-TonB-Gray3 [2]: 1%

B17: Gray3-(EAAAKLL)4-HB1: hair-binding domain, SEQ ID NO: 100 (peptide)
chain: PSHDHKNQKETHQRHAAGPEAAAKLLEAAAKLLEAAAKLLEAAAKLLPATPPTNVLMLATKGS
- Phage Titer (%) relative to the activity of HP2-TonB-Gray3 [1]: 1%
- ELISA (%) relative to the activity of HP2-TonB-Gray3 [2]: 1%

The next lines start with the values.

- Phage Titer (%) relative to the activity of HP2-TonB-Gray3 [1]: 10%
- ELISA (%) relative to the activity of HP2-TonB-Gray3 [2]: 1%
Molecule: HB1-(KGGGS)4-HP2: hair-binding domain with flexible linker, SEQ ID NO: 95 (PSTPPTNVLMLATKGPKGGGSKGGGSKGGGSKGGGSPAAQSQLPDKHSGLHERAPQRYGS)

- Phage Titer (%) relative to the activity of HP2-TonB-Gray3 [1]: 5%
- ELISA (%) relative to the activity of HP2-TonB-Gray3 [2]: 1%
Molecule: HB1-(KP)12-IB5A: hair-binding domain, SEQ ID NO: 96 (PSTPPTNVLMLATKGPKPKPKPKPKPKPKPKPKPKPKPKPPATPPELLHGAPRSGS)

- Phage Titer (%) relative to the activity of HP2-TonB-Gray3 [1]: 330%
- ELISA (%) relative to the activity of HP2-TonB-Gray3 [2]: 130%
Molecule: HP2-(EEAAKK)2-MEA4: hair-binding domain, SEQ ID NO: 76 (PSAQSQLPDKHSGLHERAPQRYGPEEAAKKEEAAKKPAHINKTNPHQGNHHSEKTQRQGS)

- Phage Titer (%) relative to the activity of HP2-TonB-Gray3 [1]: 10%
- ELISA (%) relative to the activity of HP2-TonB-Gray3 [2]: 20%
B1: MEA4-(EAAAKLL)3-IB5A: hair-binding domain, SEQ ID NO: 94 (peptide)
chain: PSHINKTNPHQGNHHSEKTQRQGPEAAAKLLEAAAKLLEAAAKLLPATPPELLHGAPRSGS

- Phage Titer (%) relative to the activity of HP2-TonB-Gray3 [1]: 25%
- ELISA (%) relative to the activity of HP2-TonB-Gray3 [2]: 115%
B2: Gray5-(EAAAKLL)3-MEA4: hair-binding domain, SEQ ID NO: 90 (peptide)
chain: PSTAEIQSSKNPNPHPQRSWTNGPEAAAKLLEAAAKLLEAAAKLLPAHINKTNPHQGNHHSEKTQRQGS

- Phage Titer (%) relative to the activity of HP2-TonB-Gray3 [1]: 80%
- ELISA (%) relative to the activity of HP2-TonB-Gray3 [2]: 170%
B5: HP2-(EEAAKK)4-MEA4: hair-binding domain, SEQ ID NO: 75 (peptide)
chain: PSAQSQLPDKHSGLHERAPQRYGPEEAAKKEEAAKKEEAAKKEEAAKKPAHINKTNPHQGNHHSEKTQRQGS

- Phage Titer (%) relative to the activity of HP2-TonB-Gray3 [1]: 50%
- ELISA (%) relative to the activity of HP2-TonB-Gray3 [2]: 80%
B6: HP2-(EEAAKK)5-Gray4A: hair-binding domain, SEQ ID NO: 74 (peptide)
chain: PSAQSQLPDKHSGLHERAPQRYGPEEAAKKEEAAKKEEAAKKEEAAKKEEAAKKPAHNHMQERYTAPQHSPSVNGLGS

- Phage Titer (%) relative to the activity of HP2-TonB-Gray3 [1]: 40%
- ELISA (%) relative to the activity of HP2-TonB-Gray3 [2]: 8%
B7: HP2-(EEAAKK)4-Gray1: hair-binding domain, SEQ ID NO: 73 (peptide)
chain: PSAQSQLPDKHSGLHERAPQRYGPEEAAKKEEAAKKEEAAKKEEAAKKPAGMPAMHWIHPFAGS

- Phage Titer (%) relative to the activity of HP2-TonB-Gray3 [1]: 50%
- ELISA (%) relative to the activity of HP2-TonB-Gray3 [2]: 100%
B11: HP2-TonB-IB5A: hair-binding domain, SEQ ID NO: 88 (peptide)
chain: PSAQSQLPDKHSGLHERAPQRYGPEPEPEPEPIPEPPKEAPVVIEKPKPKPKPKPKPPATPPELLHGAPRSGS

- Phage Titer (%) relative to the activity of HP2-TonB-Gray3 [1]: 30%
- ELISA (%) relative to the activity of HP2-TonB-Gray3 [2]: 1%
B12: HP2-TonB-HB1: hair-binding domain, SEQ ID NO: 93 (peptide)
chain: B11 chain with E63T, L64N, L65V, H66L, G67M, A68L, P69A, R70T, S71K

- Phage Titer (%) relative to the activity of HP2-TonB-Gray3 [1]: 1%
- ELISA (%) relative to the activity of HP2-TonB-Gray3 [2]: 1%
B13: HP2-TonB-MEA4: hair-binding domain, SEQ ID NO: 89 (peptide)
chain: PSAQSQLPDKHSGLHERAPQRYGPEPEPEPEPIPEPPKEAPVVIEKPKPKPKPKPKPPAHINKTNPHQGNHHSEKTQRQGS

- Phage Titer (%) relative to the activity of HP2-TonB-Gray3 [1]: 100%
- ELISA (%) relative to the activity of HP2-TonB-Gray3 [2]: 100%
B15: HP2-TonB-Gray3: hair-binding domain, SEQ ID NO: 85, also found in peptide HC353 (peptide)
chain: PSAQSQLPDKHSGLHERAPQRYGPEPEPEPEPIPEPPKEAPVVIEKPKPKPKPKPKPPAHDHKNQKETHQRHAAGS

- Phage Titer (%) relative to the activity of HP2-TonB-Gray3 [1]: 55%
- ELISA (%) relative to the activity of HP2-TonB-Gray3 [2]: 55%
B16: HP2-TonB-HP2: hair-binding domain, SEQ ID NO: 91 (peptide)
chain: PSAQSQLPDKHSGLHERAPQRYGPEPEPEPEPIPEPPKEAPVVIEKPKPKPKPKPKPPAAQSQLPDKHSGLHERAPQRYGS
